# Measurements from the RNAGym collection of RNA variant scans (doi:10.1073/pnas.2313332121).
# Variants at the floor of the assay were thinned out.
# B1: TPR 5TU (parent)
# chain: GGAUCUUCUCGAUCUAACAAAAAAGACAAAUCUGCCACAAAGCUUGAGAGCAUCUUCGGAUGCAGAGGCGGCAGCCUUCGGUGGCGCGAUAGCGCCAACGUUCUCAACUAUGACACGCAAAACGCGUGCUCCGUUGAAUGGAGUUUAUCAUG
# Variants of: B1
# Experiment: polymerase ribozyme fitness, log enrichment relative to wild type (log ratio); higher = more active; in vitro selection for triplet polymerase activity
# How it was run: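 Mutant libraries were PCR-built and transcribed for each subunit of a heterodimeric triplet polymerase ribozyme and selected for one round in triplicate at −7 °C, frozen, before gel excision of extended constructs and streptavidin-bead capture. Input and output libraries were Illumina-sequenced, keeping genotypes with ≥10 input reads and ≥1 read per output. Fitness is a logarithmic ratio of genotype to wild-type enrichment, in base 2, using inverse-variance-weighted replicate averages.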
row,Variant,polymerase ribozyme fitness (log ratio)
1,A37G U61C G94U U145C,≤ -4.2
2,A37U G58C A97G C132U,-2.67
3,C38U A52G A73U G152U,-4.12
4,A37C G86A,-1.34
5,A37U A52G C76U C95A,-2.41
6,A37G G42C G88U A115G,≤ -4.2
7,A37U C54A C57A C93U,-3.28
8,A37G C51U C72U C95A A138U G143U,≤ -4.2
9,C38A U55A U135A U146C,-1.06
10,C38U G86A A137G A147U,-2.49
11,C38U G50A A73U G126U,-3.21
12,A37G A91C A138C G140U,≤ -4.2
13,C38G U56A G86U U130A,≤ -4.2
14,C38A C96U C99U,-0.43
15,C38U G84U,-2.42
16,C38A U56A G86C,-3.01
17,C38A C54A C63U G70U C75U C87A,≤ -4.2
18,C38U U45A G84U C129A A142C,≤ -4.2
19,C38U C85G C93U G117U G128C,≤ -4.2
20,A37U G59C C149G,≤ -4.2
21,A37C G86A C103A A120U,≤ -4.2
22,C38U C96G A142U U146A,-1.67
23,A37G G58A G92C G140U,≤ -4.2
24,A37C U55G G94A,0.0696

row,Variant,polymerase ribozyme fitness (log ratio)
1,A37C G92C G124C,-2.65
2,C38A U145C,-0.328
3,C38U C125A,-0.6
4,A37G C93A U145G,-3.99
5,A37U C96U G126U,-2.91
6,A37G G124A,-2.19
7,C38U G58U C85U C108A U134A U144C,≤ -4.2
8,C38A C118U A120C G141A,-0.525
9,A37C U55A G133C U144A,-2.6
10,A37U C38G A97C,-1.69
11,C38G G133C A147C,-2.55
12,A37U A52G C76A C96U C131G,≤ -4.2
13,C38G C54G U82C U146A,-1.88
14,A37U U135A,-2.34
15,A37G A97G A98G,-2.55
16,C38U C54U C57A G84A C118U,-1.06
17,A37G U44A A52C G86U C95U U101G U144C,≤ -4.2
18,C38U G62A C96U C129U,-0.672
19,C38A C54U A73U,-2.15
20,C38U G50U U56A G74U C75G C125U U139A,≤ -4.2
21,C38U A60C U61A C76U C87G C93A G136A G141A,≤ -4.2
22,A37G C93U G117A G128A,-4.18
23,C38U A39C U61G G124C,-3.96
24,A37U U61A C85U,-2.89

row,Variant,polymerase ribozyme fitness (log ratio)
1,A37U A52G G83A G84A A115U,≤ -4.2
2,C38U A49U U61G G83U G133C A142C,≤ -4.2
3,C38A U55A,-0.143
4,C38U G58A U61A U134C,-1.57
5,A37G A66U C96A C103U,≤ -4.2
6,A37U C75A C85U G112C G124C C132G A142G U145A,≤ -4.2
7,C38U C96G G152U,-3.85
8,A37U A73G,-1.1
9,A37G A47C G100U G143A,≤ -4.2
10,C38A C87A,≤ -4.2
11,C38U A47C A64C U78G G84C A97C C108U,≤ -4.2
12,A37G C95A U127G,-4.15
13,A37G U45A C96U,≤ -4.2
14,A37G A52C C95U A98C,-3.46
15,C38A C96G,-0.458
16,A37G U55G C85G,-3.49
17,C38U A121C G136C A138U U148G,≤ -4.2
18,C38A C76U A110G A113G G152A,≤ -4.2
19,C38U G83A G100A C129G,≤ -4.2
20,C38U C54A A60U,-0.76
21,A37U U56A C99U G143U,-3.88
22,A37G C95U,-2.43
23,C38G G42C U61G G86U,≤ -4.2
24,C38G G141A,-0.0444

row,Variant,polymerase ribozyme fitness (log ratio)
1,A37U C95G,-3.51
2,C38U C87G,-3.75
3,C38U C87U,-1.19
4,A37U A52C A73U G86A C96A C108G G133A G141A,≤ -4.2
5,C38G U56A G94A A121G,-1.64
6,C38G C85U A89C,-1.86
7,C38U C63A G94C,-0.694
8,A37G U78A C93G C116U,≤ -4.2
9,C38A U55A G94U C99G,-3.88
10,C38U A41C G48A C51A G84C G141C,≤ -4.2
11,A37C U53A U78A C85A,≤ -4.2
12,C38U C51U U56A G94U C105A A121U,-4.15
13,A37G A60G G83C C96U G141U,-2.58
14,A37U U55A G58C A142U,-2.45
15,C38A G84A U148G,≤ -4.2
16,A37U G58A G59C A121U,-0.167
17,C38U A52G C93G G117U,-3.91
18,C38A C85G G86U,≤ -4.2
19,C38U G80C C85U G100U,≤ -4.2
20,A37G C54A G141A,-2.78
21,C38A C95A C118A,-1.55
22,C38A U56A G74C G92U U109G,≤ -4.2
23,C38U C63A C85U,0.65
24,A37U U78G U90C U101G U104G,≤ -4.2

row,Variant,polymerase ribozyme fitness (log ratio)
1,C38U A40C G81A A91G C125G,-3.83
2,A37G U61A G141C U148C,≤ -4.2
3,C38G C75U C93G,-4.16
4,C38G G71A U82G A107U,≤ -4.2
5,A37U C87U,-0.99
6,A37G A64G G80A G88U G143A,≤ -4.2
7,A37G G74U C87G A115C,≤ -4.2
8,C38U A52G C57U G67U A89U G92A,≤ -4.2
9,A37G A60C,-3.15
10,A37G C96A U102A C131U G136U,≤ -4.2
11,C38G G80C C99G C116U,-0.78
12,A37U C103A,-3.85
13,C38A U56A,-0.602
14,A37U A115C A119C,-2.95
15,C38A A64G C69G C87U U134A U151C,≤ -4.2
16,C38U A41U G94A,-1.15
17,C38U G86A,-1.16
18,C38U G86U,-1.57
19,C38U C85U C105U C123G,0.319
20,C38G C43U C87A C132G U135G G136C U146A,≤ -4.2
21,A37G A73U G94A A97C G124A,≤ -4.2
22,A37U U61A A89C C96A A98C U104A,≤ -4.2
23,A37U A40C U55A G58A G59A G84C G126A,-4.07
24,C38U C93A A119C A142U,-3.54

row,Variant,polymerase ribozyme fitness (log ratio)
1,C38U A40C G80U C95U,-1.06
2,C38U G81A C99G A120U G124C,-3.02
3,A37U A64U,≤ -4.2
4,C38U C85U C95G C105A,-3.93
5,A37U U56C C69U,-2.76
6,A37G G50C,-3.93
7,C38U C63U A73G C87U,-0.21
8,C38A C76A C93U G117A,-1.25
9,A37U A98G,-1.34
10,C38U A52G G92A G124U,-3.84
11,C38A C43G C105G C116U,≤ -4.2
12,C38A U55A A106C G117A U146A,-1.67
13,C38A A47C C96A,-1.63
14,A37U C85A C93U G141C A147C,≤ -4.2
15,C38U C79U A121U C125A G143U,-3.92
16,C38U U45A G92C,-4.13
17,C38A G58U C95G,-1.52
18,C38U A49C,≤ -4.2
19,C38U C87U A115U C125U,-3.34
20,C38U U44A A47U G67C C69U G84A,≤ -4.2
21,C38U C95G U102A,-2.51
22,A37U G84A U102C C123G,-4.19
23,A37G C38A C43U C54G G80U U104G,≤ -4.2
24,C38U C116G U148A,-3.89

row,Variant,polymerase ribozyme fitness (log ratio)
1,A37U U101G U134G G141A,-4.08
2,A37U C51U G92U,-2.25
3,C38U C93U A121G G124A U135G,≤ -4.2
4,C38A G58C C87U,-0.072
5,C38G U56G C72A A91U A107C G117A U148A,≤ -4.2
6,C38G A60G C76G G81A G84U U102G C116U G128A,≤ -4.2
7,C38U G50A U77C C87G,≤ -4.2
8,C38U G92A U146A,-2.92
9,C38U U55C A64U G94A C103A C125U,≤ -4.2
10,C38U U55G C85A,-2.3
11,A37G A39U G58C G62A C63U A64U U77A C87G C103G A150U,≤ -4.2
12,C38U A60U C87U C95G U135A,≤ -4.2
13,A37U G58U C96U C118G U146C,-3.08
14,A37U A49C C63G C87G G124U,≤ -4.2
15,A37G C95G C114U A119U A120G,≤ -4.2
16,C38A G94U G143U,≤ -4.2
17,A37C U144A,-0.958
18,A37U C54U C93U,-2.44
19,C38U C93G,-2.92
20,C38U A110U,-3.7
21,C38A A122U A137G G141U A142G,-3.83
22,C38U U55A A60G C75G C76G A115U A122U C125G,≤ -4.2
23,C38U C72U C95G,-0.675
